# Assay: yeast display, Sf9 membrane polyspecificity reagent, FACS + sequencing; frameworks hold sequencing errors
# In short: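 Synthetic nanobody libraries on Saccharomyces cerevisiae BJ5465 were galactose-induced for 36–48 hours, stained 1 hour at 4 °C with 10% biotinylated, detergent-solubilized Sf9 membrane reagent and enriched on streptavidin microbeads. FACS then separated cells into low and high (top ~1%) gates by anti-HA (expression) and streptavidin (reagent binding) fluorescence. Genes were colony-PCR amplified, MiSeq 2 × 250 sequenced and CDR-length filtered. A clone's polyreactivity label is that of its gate of origin.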
row,Sequence,polyreactivity (PSR sort gate)
1,QVQLVESGGGLVQAGGSLRLSCAASGLIFANNTMGWYRQAPGKERELVAAISATGDGNTYYADSVKGRFTISRDNAKNTVYLQMNSLKPEDTAVYYCNRLPQYALPYRHNGYWGQGTQVTVSS,low polyreactivity
2,QVQLVESGGGLVQAGGSLRLSCAASGSIFGYYAMGWYRQAPGKERELVAAITTRGGRTYYADSVKGRFTISRDNAKNTVYFQINSLKPEDTAVYYCAARTGRGRYDYWGQGTQVTVSS,high polyreactivity
3,QVQLVESGGGLVQAGGSLRLSCAASGSTFGHNAMGWYRQAPGKERELVAAIDSGDGTTYADSVKGRFTISRDNAKNTVYLQMNSLKPEDTAVYYCAATTDRAEDDDNIGGYWGQGTQVTVSS,low polyreactivity
4,QVQLVESGGGLVQAGGSLRLSCAASGRTFFHYAMGWYRQAPRKERELVAAISSGGGTYADSVKGRFTISRDNAKNTVYLQMNSLKPEDTAVYYCNADTDSAKSPAYYYWGQGTQVTVSS,low polyreactivity
5,QVQLVESGGGLVQAGGSLRLSCAASGSTFGKNAMGWYRQAPGKERELVASITWRGGSTYYADSVKGRFTISRDNAKNTVYLQMNSLKPEDTAVYYCATKWHIHIGSYKYYYWGHGTQVTVSS,low polyreactivity
6,QVQLVESGGGLVQAGGSLRLSCAASGRTFDGYAMGWYRQAPGKERELVASINGGGSTNYADSVKGRFTISRDNAKNTVYLQMNSLKPEDTAVYYCAAESKGTWHYLYTSPHYYWGQGTQVTVSS,low polyreactivity
7,QVQLVESGGGLVQAGGSLRLSCAASGFTFKFNAMGWYRQAPGKERELVAAISYSGGSTYYADSVKGRFTISRDIAKNTVYVQMNSLKPEDTAVYYCAARAYWYGASYYYWGQGTQVTVSS,high polyreactivity
8,QVQLEESGGGLVQAGGSLRLSCAASGIIFPRNAMGWYRQAPGKERELVAAITNTGSTKYADSVKGRFTISRDNAKNSVYLHMNSLKPEDTAVYYCAKELGSVPSPSLYDYWGQGTQVTVSS,low polyreactivity
9,QVQLVESGGGLVQAGVILRLSCAASGLIFGLYAMGWYRQAPGKERELVAAISYRTDSTYADSVKGRFTISRDNAKNTVYLQMNSLKPEDTAVYYCAADLRVSVRYYYWGQGTQVTVSS,low polyreactivity
10,QVQLVESGGGLVQAGGSLRLSCAASGRTFAKYAMGWYRQAPGKERELVAAIRWSGGSTYYADSVKGRFTISRDNAKNTVYLQMNSLKPEDTAVYYCAARPALWGRYRGYDYWGQGTQVTVSS,high polyreactivity
11,QVQLVESGGGLVQAGGSLRLSCAASGSIFTGYSMGWYRQAPGKERELVAAISNSGTSTYYADSVKGRFTISRDNAKNTVYLQMNCLKPDDTAVYYCNRYHRLRVVPSRYVKYDYWGQGTQVTVSS,low polyreactivity
12,QVQLVESGGGLVQAGGSLRLSCAASGFILVGYAMGWYRQARGKERELVAAITSGGTTSYADAVKGSFIISRDNAKNTVYLQMISLKPEESAVYYCAAVQWDSSSKYYYWGQGTQVTVSS,low polyreactivity
13,QVQLVESGGGLVQAGGSLRLSCAASGGTFYFYAMGWDRQAPGKERELVAAISRSVGSTYYADSVKGRFTISRDNAKNTVYLQMNSLKPEDTAVYYCAARYTGGGIRYDYWGQGTQVTLSS,high polyreactivity
14,QVQLVESGGGLVQAGGSLRLSCAASGSTFVDYALGWARQAPGKERELVAAISSSGGSTYYADSVKGRFTISRDTAKNTVYLQMNSLKPEDTAVYYCAARYDRSSKRNYWGQGTQVTVSS,low polyreactivity
15,QVQLVVSGGGLVQAGGSLRLSCAASGSTIASNAMGWYRQAPGKERELVAGISSSDGGTYYADSVKGRFTISRDNAKNNVYLEMNSLKREDTAVYYCNAPPGTFQWQGHSDYWGQGTQVTVSS,low polyreactivity
16,QVQHVDSVGGLVQAGRSLRLICAASGSTFTSYTKGWYRQAPLKERELVDRITRGGGSTYYADSVKGRFTISRDNAKNTVYLQMNSLKQEDTAVYYCAKHVVGSAYYSWGQGTQVTVSS,low polyreactivity

row,Sequence,polyreactivity (PSR sort gate)
1,QVQLVVSGGGLVQAGGSLRLSCAASGFIFVNYAMGWYRQAPGKDGELVAAISRGGGRTYYADSVKGRFTISRDNAKNTVYLQMNSLKPEDTAVYYCNARRLGYHQRYFWGQGTQVTVSS,high polyreactivity
2,QVQLVESGGGLVQAGGSLRLSCAASGRIFVINAMGWYRQAPGKERELVAAISQSGGSTYYADSVKGRFTISRDNAKNNVYLQMNSLKPEDTAVYYCNALSNVPYDYWGQGTQVTVSS,low polyreactivity
3,QVQLVESGGGLVQAGGSLRLSCAASGSIFTYYAMGWYRQAPGKERELVAAISYSGGTTYYADSVKGRFTISRDNAKNTVYLQMYSLKPEDTAVYYCNVDADYESEWLSVGYDYWGQGTQVTVSS,low polyreactivity
4,QVQHVESGGGIVQAGGSLRLICAASGFPYARYAMGWNRQAPGNERELVAAITSAGSTSYADSVKGRFTISRYNAKNTDYFHMNSLKPEDTAVYYCAAVQYNQAYHYWGQGTQVTVSS,high polyreactivity
5,QVQLVETGGGLVQAGGSLRLSCAASGIFTYTMGWYRQAPRKERELVAAITNGSTYDADSVKGRFTISRDNAKNTVYLQMNSLKPEDTEVYYCAADRSSAYRWRSAGYYKYDYWGQGTHVTVSS,low polyreactivity
6,QVQLVESGAGLVRAGGSLRISCAASGNIYGANTMGWYRQAPGKERELDATITWSGGDTYYADSVKGRFTISRDNAKNSVYLQMNSLKPEDTAVYYCATRRFRYRPPFKYDYWVQGTQVTVSS,low polyreactivity
7,QVQLVESGGGLGQAGGSLRLSCAASGFTFDFYAMGWYRQAPGKERELVAAISKNDGTTYYADSVKGRFTISRDNAKNTVYLQMNSLKPEDTAVYYCAAESGYPVYTYVSSGDYWGQGTQVTVSS,low polyreactivity
8,QVQLVESGGGLGQARGSLRLSRAASGSPFEYNAMGWYRPAPGKERELVASSTNYADSVKGRFTISRDNAKNTVYLQMNSLKPEVTAVNSCAREPGVNRNHDYWGQGSQVTVSS,low polyreactivity
9,QVQLVESGGGLVQAGGSLRLSCAASGIIFLNYAMGWYRQAPGKERELDAGITGRGGITYYTDSVKGRFTISRDNAKNTVYLQMNSLKPEDTAVYYCAARRYRFAGDYRMYYWGQGTQVTVSS,high polyreactivity
10,QVQLVESGGGLVQAGGSLRLSSAASGFTFGNNAMVWYRQAPGKEREFVATISRRGGSTYYADSVKGRFTISRDNAKNTVYLLMNSLKPEDTAVYYCAVDRAGIKFAAGYDYWGQGTQVTVSS,high polyreactivity
11,QVQLVESGGGLVQPGGSLRLSCAASGSIFYGYTMGWYRQEPGKERELVAAIRKSGGSTNYADSVKWRFTISRDIAKNTVYLQMNSLKPEDTAVYYCAAAYYRGRGYFWGQGTQVTVSS,high polyreactivity
12,QVQLVESGGGLVQAGGSLRLSCAASGYTFSNNAMGWYRQAPGKERELVAAISRSTGSTYYADSVKGRFTISRDYAKNTVYLQMNSLKPEDTAVYYCAVYRHGYGYNYWGQGTQVTVSS,high polyreactivity
13,QVHLVESGGGLVQAGGSLRLSCAASGSTSRKYTMGWYRQAPGKERELVATISWSGGSTNYADSVKGRFTISRDNAKNTVYLQMNSLKPEETAVYYCKAYVSPRYRGSRYYYWGQGTQVTVSS,high polyreactivity
14,QVQLVESGGGLVQAGGSLRLSCAASGITFAYNTMGWYRQAPGKERELVAGISVSGASTYYADSVKGRFTISRDNAKNSVYLQMNSLKPEDTAVYYCAAPRWVANQYREYDYWGQGTQVTVSS,high polyreactivity
15,QVQLEESGGGLVKAGGSLRLSSAASGITIGIYLIGWYRQAPGTESEFVATISRSDDNTYYADSVMGRFTISRDNAKNTVYLQMNSLKPEDSAVYYCPADGVISAWYSSRDDYWGKGTQVTVSS,low polyreactivity
16,QVQLVESGGGLVQAGGSLRLSCAASGRIFAHNAMGWYRQAPGKERELGASINSGGSTTYADSVKGRFTISRDNAKNTVYLQMNSLKPEDTAVYDCAKRDKYGKYDYWGQGTQVTVSS,low polyreactivity

# Reference: the nanobody polyreactivity screen of Harvey et al. (2022)
